# Experimental data published in article PMC5846801, “Disease Variants of FGFR3 Reveal Molecular Basis for the Recognition and Additional Roles for Cdc37 in Hsp90 Chaperone System” (Structure(London, England:1993), 2018).
# B1: non-phosphorylated Cdc37 (natural protein)
# chain: MVDYSVWDHIEVSDDEDETHPNIDTASLFRWRHQARVERMEQFQKEKEELDRGCRECKRKVAECQRKLKELEVAEGGKAELERLQAEAQQLRKEERSWEQKLEEMRKKEKSMPWNVDTLSKDGFSKSMVNTKPEKTEEDSEEVREQKHKTFVEKYEKQIKHFGMLRRWDDSQKYLSDNVHLVCEETANYLVIWCIDLEVEEKCALMEQVAHQTIVMQFILELAKSLKVDPRACFRQFFTKIKTADRQYMEGFNDELEAFKERVRGRAKLRIEKAMKEYEEEERKKRLGPGGLDPVEVYESLPEELQKCFDVKDVQMLQDAISKMDPTDAKYHMQRCIDSGLWVPNSKASEAKEGEEAGPGDPLLEAVPKTGDEKDVSV
# notes: human Hsp90 co-chaperone Cdc37, expressed from pET28 (gift of C. Vaughan; Vaughan et al., 2006), not phosphorylated; Used in ITC and in the auto-phosphorylation assay and in the comparison with the phosphorylated form; No tag removal step is described; also called CDC37^Apo; Cdc37^Apo; source: E. coli C41 (DE3), purified (HisTrap, HiTrap Q, Superdex 200)
# B2: FGFR3 kinase domain variant I538F (domain or fragment)
# chain: SELELPADPKWELSRARLTLGKPLGEGCFGQVVMAEAIGIDKDRAAKPVTVAVKMLKDDATDKDLSDLVSEMEMMKMIGKHKNFINLLGACTQGGPLYVLVEYAAKGNLREFLRARRPPGLDYSFDTCKPPEEQLTFKDLVSCAYQVARGMEYLASQKCIHRDLAARNVLVTEDNVMKIADFGLARDVHNLDYYKKTTNGRLPVKWMAPEALFDRVYTHQSDVWSFGVLLWEIFTLGGSPYPGIPVEELFKLLKEGHRMDKPANCTHDLYMIMRECWHAAPSQRPTFKQLVEDLDRVLTVTSTDEYLDLSAPFE
# notes: FGFR3 kinase domain, amino acids 455-768 of human FGFR3, disease-linked (cancer) mutation I538F; pJ821 construct; 15N labelled for NMR; also called FGFR3^I538F; GFR3^I538F; source: E. coli C41 (DE3), co-expressed with lambda phosphatase, purified (HisTrap, HiTrap Q, Superdex 200); not shown: His-SUMO, N-terminal, cleaved
# Experiments:
# Settings in all cases: both partners purified
# [1] = molecular target: B2; assay: ITC; kinase domain in the cell (FGFR3 WT 19.4 μM, FGFR3 I538F 16.9 μM), Cdc37 Apo 211.7 μM in the syringe; 25 mM Tris.Cl, 50 mM NaCl, 5 mM MgCl2, 0.1 mM TCEP, pH 7.5, 20 °C; single site model
# Hsp90α = molecular target: T1, Hsp90α (human, UniProt P07900 1-732); assay: SEC; ternary mixture: 15 μM kinase, 15 μM Cdc37, 30 μM Hsp90α (1:1:2), 15 min at 4 °C; Superdex 200 Increase, 25 mM Tris.Cl, 150 mM NaCl, 1 mM TCEP, pH 8.0, 4 °C; fractions by SDS-PAGE and ELISA
# T1 construct: human Hsp90α, expressed from pRSET (gift of C. Vaughan; Vaughan et al., 2006); Used at a 2:1:1 ratio to Cdc37 and kinase; source: E. coli C41 (DE3), purified (HisTrap, HiTrap Q, Superdex 200)
# non-phosphorylated Cdc37 = molecular target: B1; assay: ITC; kinase domain in the cell (FGFR3 WT 19.4 μM, FGFR3 I538F 16.9 μM), Cdc37 Apo 211.7 μM in the syringe; 25 mM Tris.Cl, 50 mM NaCl, 5 mM MgCl2, 0.1 mM TCEP, pH 7.5, 20 °C; single site model
stoichiometry N [1],binding result (Hsp90α),Kd (non-phosphorylated Cdc37) [µM],Binder
1,–,–,B1
–,binds,–,"FGFR3 kinase domain variant E466K (domain or fragment, FGFR3 kinase domain, amino acids 455-768 of human FGFR3, disease-linked (cancer) mutation E466K; also called FGFR3^E466K; source: E. coli C41 (DE3), co-expressed with lambda phosphatase, purified (HisTrap, HiTrap Q, Superdex 200)) SELELPADPKWKLSRARLTLGKPLGEGCFGQVVMAEAIGIDKDRAAKPVTVAVKMLKDDATDKDLSDLVSEMEMMKMIGKHKNIINLLGACTQGGPLYVLVEYAAKGNLREFLRARRPPGLDYSFDTCKPPEEQLTFKDLVSCAYQVARGMEYLASQKCIHRDLAARNVLVTEDNVMKIADFGLARDVHNLDYYKKTTNGRLPVKWMAPEALFDRVYTHQSDVWSFGVLLWEIFTLGGSPYPGIPVEELFKLLKEGHRMDKPANCTHDLYMIMRECWHAAPSQRPTFKQLVEDLDRVLTVTSTDEYLDLSAPFE"
–,binds,1.8,B2
–,binds,–,"FGFR3 kinase domain variant N540K (domain or fragment, FGFR3 kinase domain, amino acids 455-768 of human FGFR3, disease-linked mutation N540K; pJ821 construct; also called FGFR3^N540K; source: E. coli C41 (DE3), co-expressed with lambda phosphatase, purified (HisTrap, HiTrap Q, Superdex 200); not shown: His-SUMO, N-terminal, cleaved) SELELPADPKWELSRARLTLGKPLGEGCFGQVVMAEAIGIDKDRAAKPVTVAVKMLKDDATDKDLSDLVSEMEMMKMIGKHKNIIKLLGACTQGGPLYVLVEYAAKGNLREFLRARRPPGLDYSFDTCKPPEEQLTFKDLVSCAYQVARGMEYLASQKCIHRDLAARNVLVTEDNVMKIADFGLARDVHNLDYYKKTTNGRLPVKWMAPEALFDRVYTHQSDVWSFGVLLWEIFTLGGSPYPGIPVEELFKLLKEGHRMDKPANCTHDLYMIMRECWHAAPSQRPTFKQLVEDLDRVLTVTSTDEYLDLSAPFE"
